1 molecule from PMC2760979 (Cancer research, 2009) can be followed below.

This experiment has as its target GST-p65(1-306) (UniProt Q04206 1-306). Description: pull-down.

Sequence of GST-p65(1-306) (Q04206 1-306): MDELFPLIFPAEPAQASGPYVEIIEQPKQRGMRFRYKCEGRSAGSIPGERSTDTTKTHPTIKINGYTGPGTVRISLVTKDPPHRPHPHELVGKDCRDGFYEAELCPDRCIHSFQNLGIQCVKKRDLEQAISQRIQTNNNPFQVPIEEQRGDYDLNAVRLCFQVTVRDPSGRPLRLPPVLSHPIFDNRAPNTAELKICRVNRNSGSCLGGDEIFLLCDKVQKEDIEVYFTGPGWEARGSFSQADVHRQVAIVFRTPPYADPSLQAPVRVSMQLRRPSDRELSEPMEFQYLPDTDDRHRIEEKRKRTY

Regarding GGSSLSY [GGSSLSY peptide], the binding result was “binds”.
